Test results from publication PMC2801713 (Molecular Biology of the Cell, 2010).

Target: GFP-WIP (wild type) (human, UniProt O43516 1-503)
Assay: far-Western, overlay or dot blot

Chain of GFP-WIP (wild type) (O43516 whole entry): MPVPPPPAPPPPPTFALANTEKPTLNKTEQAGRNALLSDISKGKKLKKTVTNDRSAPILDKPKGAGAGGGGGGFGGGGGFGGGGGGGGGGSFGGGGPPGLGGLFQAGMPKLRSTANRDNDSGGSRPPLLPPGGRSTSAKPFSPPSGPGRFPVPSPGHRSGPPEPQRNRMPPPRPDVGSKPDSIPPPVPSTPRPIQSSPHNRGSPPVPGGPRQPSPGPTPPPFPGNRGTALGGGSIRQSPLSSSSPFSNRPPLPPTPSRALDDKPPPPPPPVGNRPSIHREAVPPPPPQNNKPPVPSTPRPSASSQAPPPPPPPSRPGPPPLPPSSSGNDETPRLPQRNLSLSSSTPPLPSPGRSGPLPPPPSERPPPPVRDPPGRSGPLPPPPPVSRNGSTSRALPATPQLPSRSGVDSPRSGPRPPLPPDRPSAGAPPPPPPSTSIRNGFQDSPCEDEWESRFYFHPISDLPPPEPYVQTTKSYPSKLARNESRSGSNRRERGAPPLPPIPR

B1: His-mAbp1-GST (natural protein, mouse, UniProt Q62418 1-436, looked up)
chain: MAVNLSRNGPALQEAYVRVVTEKSPTDWALFTYEGNSNDIRVAGTGEGGLEELVEELNSGKVMYAFCRVKDPNSGLPKFVLINWTGEGVNDVRKGACANHVSTMANFLKGAHVTINARAEEDVEPECIMEKVAKASGANYSFHKESTSFQDVGPQAPVGSVYQKTNAISEIKRVGKDNFWAKAEKEEENRRLEEKRRAEEERQRLEEERRERELQEAARREQRYQEQHRSAGAPSPSSRTGEPEQEAVSRTRQEWESAGQQAPHPREIFKQKERAMSTTSVTSSQPGKLRSPFLQKQLTQPETSYGREPTAPVSRPAAGVCEEPAPSTLSSAQTEEEPTYEVPPEQDTLYEEPPLVQQQGAGSEHIDNYMQSQGFSGQGLCARALYDYQAADDTEISFDPENLITGIEVIDEGWWRGYGPDGHFGMFPANYVELIE
  binding result: binds
